Results reported in US20190275125A1.
Where two headings read alike, the source gives them in different places.

Tests used:
Test in all cases: MSD inhibition assay, abeta 1-28 coated plates
[1] = biological target: Biosimilar (BS) bapineuzumab
[2] = biological target: Biosimilar (BS) bapineuzumab; remark: listed apart in the source
[3] = biological target: Biosimilar (BS) bapineuzumab; remark: listed apart in the source

Biosimilar (BS) bapineuzumab, sequence (chain, as listed by the source, chain 1 of 2): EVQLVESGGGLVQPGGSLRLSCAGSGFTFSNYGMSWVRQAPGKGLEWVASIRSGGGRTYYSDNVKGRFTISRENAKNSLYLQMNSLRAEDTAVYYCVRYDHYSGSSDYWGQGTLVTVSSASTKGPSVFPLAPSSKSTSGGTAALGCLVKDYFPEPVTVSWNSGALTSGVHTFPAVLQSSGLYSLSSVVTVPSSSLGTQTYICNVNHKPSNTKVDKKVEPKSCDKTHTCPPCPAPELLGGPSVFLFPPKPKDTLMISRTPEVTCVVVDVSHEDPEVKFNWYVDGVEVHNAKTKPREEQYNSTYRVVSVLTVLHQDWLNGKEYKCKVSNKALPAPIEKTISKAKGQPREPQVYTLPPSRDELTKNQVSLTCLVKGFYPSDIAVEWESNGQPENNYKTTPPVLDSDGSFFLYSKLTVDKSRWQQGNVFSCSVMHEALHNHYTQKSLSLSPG
Biosimilar (BS) bapineuzumab, sequence (chain, as listed by the source, chain 2 of 2): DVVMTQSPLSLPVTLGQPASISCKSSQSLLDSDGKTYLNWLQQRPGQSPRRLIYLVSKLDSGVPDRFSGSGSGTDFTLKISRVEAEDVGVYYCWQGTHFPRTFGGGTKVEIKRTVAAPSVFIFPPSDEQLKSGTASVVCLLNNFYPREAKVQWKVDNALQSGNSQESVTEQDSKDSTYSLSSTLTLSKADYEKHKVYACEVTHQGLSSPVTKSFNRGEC

B1: abeta 1-12 trimer construct, P05067 672-683; P05067 672-683; P05067 672-683 (peptide)
peptide: DAEFRHDSGYEVGGGGGGGGDAEFRHDSGYEVGGGGGGGGDAEFRHDSGYEV
modifications: not checked
[1]
  IC50: 19 nM
[2]
  IC50: 10 to 40 nM
[3]
  IC50: 10 nM
